B1: library; numbered along this chain (parent)
chain: MAAAAAAAAEQQSSNGPVKKSMREKAVERRSVNKEHNSNFKAGYIPIDEDRLHKTGLRGRKGNLAICVIILLFILAVINLIITLVIWAVIRIGPNGCDSMEFHESGLLRFKQVSDMGVIHPLYKSTVGGRRNENLVITGNNQPIVFQQGTTKLSVENNKTSITSDIGMQFFDPRTQNILFSTDYETHEFHLPSGVKSLNVQKASTERITSNATSDLNIKVDGRAIVRGNEGVFIMGKTIEFHMGGNMELKAENSIILNGSVMVSTTRLPSSSSGDQLGSGDWVRYKLCMCADGTLFKVQVTSQNMGCQISDNPCGNTH

Variants of: B1
Assay: SGCB cell-surface expression functional score (HA stain, bin4 vs bin1, normalised to synonymous) (log10 ratio); higher = more cell-surface SGCB (functional)
Description: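 Deep mutational scan of full-length human SGCB (YFP-SGCB-HA, NNN codon sublibraries A-F) delivered by lentivirus at low MOI into ADG-HEK293 cells stably expressing SGCA, SGCD and SGCG. YFP-positive cells were stained for surface HA on unpermeabilized cells and FACS-sorted into bins. The functional score is log10(frequency in high bin 4 / frequency in low bin 1), normalised per chunk so that synonymous variants have mean 0 and SD 0.5. Scores are the median over codons and over duplicate biological replicates; scores below -0.5 are called non-functional. Scale: negative means deleterious.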

Variant | SGCB cell-surface expression functional score (log10)
MAAAAAAAAEQQSSNGPVKKSMREKAVERRSVNKEHNSNFKAGYIPIDEDRLHKTGLRGRKGNLAICVIILLVILAVINLIITLVIWAVIRIGPNGCDSMEFHESGLLRFKQVSDMGVIHPLYKSTVGGRRNENLVITGNNQPIVFQQGTTKLSVENNKTSITSDIGMQFFDPRTQNILFSTDYETHEFHLPSGVKSLNVQKASTERITSNATSDLNIKVDGRAIVRGNEGVFIMGKTIEFHMGGNMELKAENSIILNGSVMVSTTRLPSSSSGDQLGSGDWVRYKLCMCADGTLFKVQVTSQNMGCQISDNPCGNTH [F73V] | -0.23
MAAAAAAAAEQQSSNGPVKKSMREKAVERRSVNKEHNSNFKAGYIPIDEDRLHKTGLRGRKGNLAICVIILLNILAVINLIITLVIWAVIRIGPNGCDSMEFHESGLLRFKQVSDMGVIHPLYKSTVGGRRNENLVITGNNQPIVFQQGTTKLSVENNKTSITSDIGMQFFDPRTQNILFSTDYETHEFHLPSGVKSLNVQKASTERITSNATSDLNIKVDGRAIVRGNEGVFIMGKTIEFHMGGNMELKAENSIILNGSVMVSTTRLPSSSSGDQLGSGDWVRYKLCMCADGTLFKVQVTSQNMGCQISDNPCGNTH [F73N] | 0.47
MAAAAAAAAEQQSSNGPVKKSMREKAVERRSVNKEHNSNFKAGYIPIDEDRLHKTGLRGRKGNLAICVIILLMILAVINLIITLVIWAVIRIGPNGCDSMEFHESGLLRFKQVSDMGVIHPLYKSTVGGRRNENLVITGNNQPIVFQQGTTKLSVENNKTSITSDIGMQFFDPRTQNILFSTDYETHEFHLPSGVKSLNVQKASTERITSNATSDLNIKVDGRAIVRGNEGVFIMGKTIEFHMGGNMELKAENSIILNGSVMVSTTRLPSSSSGDQLGSGDWVRYKLCMCADGTLFKVQVTSQNMGCQISDNPCGNTH [F73M] | -0.01
MAAAAAAAAEQQSSNGPVKKSMREKAVERRSVNKEHNSNFKAGYIPIDEDRLHKTGLRGRKGNLAICVIILLYILAVINLIITLVIWAVIRIGPNGCDSMEFHESGLLRFKQVSDMGVIHPLYKSTVGGRRNENLVITGNNQPIVFQQGTTKLSVENNKTSITSDIGMQFFDPRTQNILFSTDYETHEFHLPSGVKSLNVQKASTERITSNATSDLNIKVDGRAIVRGNEGVFIMGKTIEFHMGGNMELKAENSIILNGSVMVSTTRLPSSSSGDQLGSGDWVRYKLCMCADGTLFKVQVTSQNMGCQISDNPCGNTH [F73Y] | 0.84
MAAAAAAAAEQQSSNGPVKKSMREKAVERRSVNKEHNSNFKAGYIPIDEDRLHKTGLRGRKGNLAICVIILLQILAVINLIITLVIWAVIRIGPNGCDSMEFHESGLLRFKQVSDMGVIHPLYKSTVGGRRNENLVITGNNQPIVFQQGTTKLSVENNKTSITSDIGMQFFDPRTQNILFSTDYETHEFHLPSGVKSLNVQKASTERITSNATSDLNIKVDGRAIVRGNEGVFIMGKTIEFHMGGNMELKAENSIILNGSVMVSTTRLPSSSSGDQLGSGDWVRYKLCMCADGTLFKVQVTSQNMGCQISDNPCGNTH [F73Q] | 0.6
MAAAAAAAAEQQSSNGPVKKSMREKAVERRSVNKEHNSNFKAGYIPIDEDRLHKTGLRGRKGNLAICVIILLSILAVINLIITLVIWAVIRIGPNGCDSMEFHESGLLRFKQVSDMGVIHPLYKSTVGGRRNENLVITGNNQPIVFQQGTTKLSVENNKTSITSDIGMQFFDPRTQNILFSTDYETHEFHLPSGVKSLNVQKASTERITSNATSDLNIKVDGRAIVRGNEGVFIMGKTIEFHMGGNMELKAENSIILNGSVMVSTTRLPSSSSGDQLGSGDWVRYKLCMCADGTLFKVQVTSQNMGCQISDNPCGNTH [F73S] | -0.15
MAAAAAAAAEQQSSNGPVKKSMREKAVERRSVNKEHNSNFKAGYIPIDEDRLHKTGLRGRKGNLAICVIILLTILAVINLIITLVIWAVIRIGPNGCDSMEFHESGLLRFKQVSDMGVIHPLYKSTVGGRRNENLVITGNNQPIVFQQGTTKLSVENNKTSITSDIGMQFFDPRTQNILFSTDYETHEFHLPSGVKSLNVQKASTERITSNATSDLNIKVDGRAIVRGNEGVFIMGKTIEFHMGGNMELKAENSIILNGSVMVSTTRLPSSSSGDQLGSGDWVRYKLCMCADGTLFKVQVTSQNMGCQISDNPCGNTH [F73T] | -0.22
MAAAAAAAAEQQSSNGPVKKSMREKAVERRSVNKEHNSNFKAGYIPIDEDRLHKTGLRGRKGNLAICVIILLPILAVINLIITLVIWAVIRIGPNGCDSMEFHESGLLRFKQVSDMGVIHPLYKSTVGGRRNENLVITGNNQPIVFQQGTTKLSVENNKTSITSDIGMQFFDPRTQNILFSTDYETHEFHLPSGVKSLNVQKASTERITSNATSDLNIKVDGRAIVRGNEGVFIMGKTIEFHMGGNMELKAENSIILNGSVMVSTTRLPSSSSGDQLGSGDWVRYKLCMCADGTLFKVQVTSQNMGCQISDNPCGNTH [F73P] | 0.07
MAAAAAAAAEQQSSNGPVKKSMREKAVERRSVNKEHNSNFKAGYIPIDEDRLHKTGLRGRKGNLAICVIILLRILAVINLIITLVIWAVIRIGPNGCDSMEFHESGLLRFKQVSDMGVIHPLYKSTVGGRRNENLVITGNNQPIVFQQGTTKLSVENNKTSITSDIGMQFFDPRTQNILFSTDYETHEFHLPSGVKSLNVQKASTERITSNATSDLNIKVDGRAIVRGNEGVFIMGKTIEFHMGGNMELKAENSIILNGSVMVSTTRLPSSSSGDQLGSGDWVRYKLCMCADGTLFKVQVTSQNMGCQISDNPCGNTH [F73R] | -0.59
MAAAAAAAAEQQSSNGPVKKSMREKAVERRSVNKEHNSNFKAGYIPIDEDRLHKTGLRGRKGNLAICVIILLFHLAVINLIITLVIWAVIRIGPNGCDSMEFHESGLLRFKQVSDMGVIHPLYKSTVGGRRNENLVITGNNQPIVFQQGTTKLSVENNKTSITSDIGMQFFDPRTQNILFSTDYETHEFHLPSGVKSLNVQKASTERITSNATSDLNIKVDGRAIVRGNEGVFIMGKTIEFHMGGNMELKAENSIILNGSVMVSTTRLPSSSSGDQLGSGDWVRYKLCMCADGTLFKVQVTSQNMGCQISDNPCGNTH [I74H] | 0.05
MAAAAAAAAEQQSSNGPVKKSMREKAVERRSVNKEHNSNFKAGYIPIDEDRLHKTGLRGRKGNLAICVIILLFMLAVINLIITLVIWAVIRIGPNGCDSMEFHESGLLRFKQVSDMGVIHPLYKSTVGGRRNENLVITGNNQPIVFQQGTTKLSVENNKTSITSDIGMQFFDPRTQNILFSTDYETHEFHLPSGVKSLNVQKASTERITSNATSDLNIKVDGRAIVRGNEGVFIMGKTIEFHMGGNMELKAENSIILNGSVMVSTTRLPSSSSGDQLGSGDWVRYKLCMCADGTLFKVQVTSQNMGCQISDNPCGNTH [I74M] | -0.6
MAAAAAAAAEQQSSNGPVKKSMREKAVERRSVNKEHNSNFKAGYIPIDEDRLHKTGLRGRKGNLAICVIILLFCLAVINLIITLVIWAVIRIGPNGCDSMEFHESGLLRFKQVSDMGVIHPLYKSTVGGRRNENLVITGNNQPIVFQQGTTKLSVENNKTSITSDIGMQFFDPRTQNILFSTDYETHEFHLPSGVKSLNVQKASTERITSNATSDLNIKVDGRAIVRGNEGVFIMGKTIEFHMGGNMELKAENSIILNGSVMVSTTRLPSSSSGDQLGSGDWVRYKLCMCADGTLFKVQVTSQNMGCQISDNPCGNTH [I74C] | 0.07
MAAAAAAAAEQQSSNGPVKKSMREKAVERRSVNKEHNSNFKAGYIPIDEDRLHKTGLRGRKGNLAICVIILLFDLAVINLIITLVIWAVIRIGPNGCDSMEFHESGLLRFKQVSDMGVIHPLYKSTVGGRRNENLVITGNNQPIVFQQGTTKLSVENNKTSITSDIGMQFFDPRTQNILFSTDYETHEFHLPSGVKSLNVQKASTERITSNATSDLNIKVDGRAIVRGNEGVFIMGKTIEFHMGGNMELKAENSIILNGSVMVSTTRLPSSSSGDQLGSGDWVRYKLCMCADGTLFKVQVTSQNMGCQISDNPCGNTH [I74D] | -0.26
MAAAAAAAAEQQSSNGPVKKSMREKAVERRSVNKEHNSNFKAGYIPIDEDRLHKTGLRGRKGNLAICVIILLFFLAVINLIITLVIWAVIRIGPNGCDSMEFHESGLLRFKQVSDMGVIHPLYKSTVGGRRNENLVITGNNQPIVFQQGTTKLSVENNKTSITSDIGMQFFDPRTQNILFSTDYETHEFHLPSGVKSLNVQKASTERITSNATSDLNIKVDGRAIVRGNEGVFIMGKTIEFHMGGNMELKAENSIILNGSVMVSTTRLPSSSSGDQLGSGDWVRYKLCMCADGTLFKVQVTSQNMGCQISDNPCGNTH [I74F] | -0.25
MAAAAAAAAEQQSSNGPVKKSMREKAVERRSVNKEHNSNFKAGYIPIDEDRLHKTGLRGRKGNLAICVIILLFGLAVINLIITLVIWAVIRIGPNGCDSMEFHESGLLRFKQVSDMGVIHPLYKSTVGGRRNENLVITGNNQPIVFQQGTTKLSVENNKTSITSDIGMQFFDPRTQNILFSTDYETHEFHLPSGVKSLNVQKASTERITSNATSDLNIKVDGRAIVRGNEGVFIMGKTIEFHMGGNMELKAENSIILNGSVMVSTTRLPSSSSGDQLGSGDWVRYKLCMCADGTLFKVQVTSQNMGCQISDNPCGNTH [I74G] | 0.2
MAAAAAAAAEQQSSNGPVKKSMREKAVERRSVNKEHNSNFKAGYIPIDEDRLHKTGLRGRKGNLAICVIILLFLLAVINLIITLVIWAVIRIGPNGCDSMEFHESGLLRFKQVSDMGVIHPLYKSTVGGRRNENLVITGNNQPIVFQQGTTKLSVENNKTSITSDIGMQFFDPRTQNILFSTDYETHEFHLPSGVKSLNVQKASTERITSNATSDLNIKVDGRAIVRGNEGVFIMGKTIEFHMGGNMELKAENSIILNGSVMVSTTRLPSSSSGDQLGSGDWVRYKLCMCADGTLFKVQVTSQNMGCQISDNPCGNTH [I74L] | 0.44
MAAAAAAAAEQQSSNGPVKKSMREKAVERRSVNKEHNSNFKAGYIPIDEDRLHKTGLRGRKGNLAICVIILLFKLAVINLIITLVIWAVIRIGPNGCDSMEFHESGLLRFKQVSDMGVIHPLYKSTVGGRRNENLVITGNNQPIVFQQGTTKLSVENNKTSITSDIGMQFFDPRTQNILFSTDYETHEFHLPSGVKSLNVQKASTERITSNATSDLNIKVDGRAIVRGNEGVFIMGKTIEFHMGGNMELKAENSIILNGSVMVSTTRLPSSSSGDQLGSGDWVRYKLCMCADGTLFKVQVTSQNMGCQISDNPCGNTH [I74K] | 0.07
MAAAAAAAAEQQSSNGPVKKSMREKAVERRSVNKEHNSNFKAGYIPIDEDRLHKTGLRGRKGNLAICVIILLFELAVINLIITLVIWAVIRIGPNGCDSMEFHESGLLRFKQVSDMGVIHPLYKSTVGGRRNENLVITGNNQPIVFQQGTTKLSVENNKTSITSDIGMQFFDPRTQNILFSTDYETHEFHLPSGVKSLNVQKASTERITSNATSDLNIKVDGRAIVRGNEGVFIMGKTIEFHMGGNMELKAENSIILNGSVMVSTTRLPSSSSGDQLGSGDWVRYKLCMCADGTLFKVQVTSQNMGCQISDNPCGNTH [I74E] | 0.75
MAAAAAAAAEQQSSNGPVKKSMREKAVERRSVNKEHNSNFKAGYIPIDEDRLHKTGLRGRKGNLAICVIILLFALAVINLIITLVIWAVIRIGPNGCDSMEFHESGLLRFKQVSDMGVIHPLYKSTVGGRRNENLVITGNNQPIVFQQGTTKLSVENNKTSITSDIGMQFFDPRTQNILFSTDYETHEFHLPSGVKSLNVQKASTERITSNATSDLNIKVDGRAIVRGNEGVFIMGKTIEFHMGGNMELKAENSIILNGSVMVSTTRLPSSSSGDQLGSGDWVRYKLCMCADGTLFKVQVTSQNMGCQISDNPCGNTH [I74A] | 0

— the supplement of paper PMC10266784
